Key:
[1] = biological target: T1, GmPOPB_S577A (Galerina marginata), H2E7Q8; experiment: ITC, 20 C, single-site model
T1 chain: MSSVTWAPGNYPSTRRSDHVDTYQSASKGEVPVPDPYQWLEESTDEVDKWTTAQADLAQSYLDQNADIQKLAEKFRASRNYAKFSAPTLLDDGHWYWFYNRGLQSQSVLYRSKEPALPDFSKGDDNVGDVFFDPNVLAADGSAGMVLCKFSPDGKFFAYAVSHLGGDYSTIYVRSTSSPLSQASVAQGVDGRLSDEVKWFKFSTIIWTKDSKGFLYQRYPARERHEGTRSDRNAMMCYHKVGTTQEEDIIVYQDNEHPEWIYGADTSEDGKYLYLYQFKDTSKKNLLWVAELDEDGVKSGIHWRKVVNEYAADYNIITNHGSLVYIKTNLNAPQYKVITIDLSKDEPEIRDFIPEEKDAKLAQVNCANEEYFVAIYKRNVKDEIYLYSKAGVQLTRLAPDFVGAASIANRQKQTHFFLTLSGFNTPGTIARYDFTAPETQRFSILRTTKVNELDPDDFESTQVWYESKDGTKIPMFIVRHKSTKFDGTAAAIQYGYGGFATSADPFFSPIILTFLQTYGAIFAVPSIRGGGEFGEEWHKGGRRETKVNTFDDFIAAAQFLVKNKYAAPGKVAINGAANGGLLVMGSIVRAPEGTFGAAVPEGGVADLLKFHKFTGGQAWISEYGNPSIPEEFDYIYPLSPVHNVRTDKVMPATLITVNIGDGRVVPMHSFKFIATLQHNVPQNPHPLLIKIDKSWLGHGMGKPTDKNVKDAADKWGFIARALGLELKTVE

[2] = biological target: T1, GmPOPB_S577A (Galerina marginata), …; experiment: ITC
[3] = biological target: T1, GmPOPB_S577A (Galerina marginata), …; experiment: ITC, peptide titrated into GmPOPB_S577A, 20 C

## WTAEHVDQTLASGNDIC (modifications not checked) [recognition sequence (17mer) …]
[1]
  Kd: 0.43 µM

## VDQTLASGNDIC (modifications not checked)
[2]
  fold reduction of binding affinity against the 17mer recognition sequence: 20 fold
[3]
  Kd: 5 µM

## TLASGNDIC (modifications not checked)
[3]
  Kd: 121 µM

## IWGIGCNPWT (modifications not checked) [10mer truncated substrate]
[3]
  Kd: 83 µM

## IWGIGCNPWTA (modifications not checked) [11mer truncated substrate]
[3]
  Kd: 39 µM

## IWGIGCNPWTAE (modifications not checked) [12mer truncated substrate]
[3]
  Kd: 21 µM

## IWGIGCNPWTAEH (modifications not checked) [13mer truncated substrate]
[2]
  fold difference in affinity against the 35mer: 20 fold
  fold reduction in binding against the 35mer: 10 fold
[3]
  Kd: 2.4 µM

## IWGIGCNPWTAEHV (modifications not checked) [14mer truncated substrate]
[3]
  Kd: 9.5 µM

Source: US20200291444A1, “Macrocyclisation Tags” (Oxford University Innovation LTD, priority 2017, published 2020)
